The target in assay [1] is T1, human GITR, membrane bound (on activated human T cells or on 3A9-hGITR cells) (UniProt Q9Y5U5 26-241).
T1 chain: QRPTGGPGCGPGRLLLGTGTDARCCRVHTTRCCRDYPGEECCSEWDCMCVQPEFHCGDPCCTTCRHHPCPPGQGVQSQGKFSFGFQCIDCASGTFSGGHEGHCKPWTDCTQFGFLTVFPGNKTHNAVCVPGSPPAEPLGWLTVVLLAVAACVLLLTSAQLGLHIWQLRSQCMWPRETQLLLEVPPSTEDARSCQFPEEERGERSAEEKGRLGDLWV
The experiment in a line: FACS. A general note: A flow cytometer gives signals particle by particle.

In assay [2] the target is T2, cynomolgus GITR, membrane bound (on activated cynomolgus T cells).
T2 chain: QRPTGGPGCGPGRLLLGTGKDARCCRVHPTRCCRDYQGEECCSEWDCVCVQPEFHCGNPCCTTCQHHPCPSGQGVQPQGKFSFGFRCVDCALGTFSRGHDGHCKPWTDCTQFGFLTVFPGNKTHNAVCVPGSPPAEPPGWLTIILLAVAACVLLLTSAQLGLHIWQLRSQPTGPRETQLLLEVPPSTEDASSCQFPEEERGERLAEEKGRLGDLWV
In words: FACS.

B1: anti-GITR.g2 (antibody)
chain 1: QVQLVESGGGVVQPGRSLRLSCAASGFTFSSYGMHWVRQAPGKGLEWVAVIWYEGSNKYYADSVKGRFTISRDNSKNTLYLQMNSLRAEDTAVYYCARGGSMVRGDYYYGMDVWGQGTTVTVSSASTKGPSVFPLAPCSRSTSESTAALGCLVKDYFPEPVTVSWNSGALTSGVHTFPAVLQSSGLYSLSSVVTVPSSNFGTQTYTCNVDHKPSNTKVDKTVERKCCVECPPCPAPPVAGPSVFLFPPKPKDTLMISRTPEVTCVVVDVSHEDPEVQFNWYVDGVEVHNAKTKPREEQFNSTFRVVSVLTVVHQDWLNGKEYKCKVSNKGLPAPIEKTISKTKGQPREPQVYTLPPSREEMTKNQVSLTCLVKGFYPSDIAVEWESNGQPENNYKTTPPMLDSDGSFFLYSKLTVDKSRWQQGNVFSCSVMHEALHNHYTQKSLSLSPGK
chain 2: not shown
On to B1, for which the EC50 (in general, the concentration that produces a half-maximal response) in assay [1] came out at 0.277 nM.

B2: anti-GITR.g2.g1.1f (antibody)
chain 1: QVQLVESGGGVVQPGRSLRLSCAASGFTFSSYGMHWVRQAPGKGLEWVAVIWYEGSNKYYADSVKGRFTISRDNSKNTLYLQMNSLRAEDTAVYYCARGGSMVRGDYYYGMDVWGQGTTVTVSSASTKGPSVFPLAPCSRSTSESTAALGCLVKDYFPEPVTVSWNSGALTSGVHTFPAVLQSSGLYSLSSVVTVPSSNFGTQTYTCNVDHKPSNTKVDKTVERKCCVECPPCPAPPVAGPSVFLFPPKPKDTLMISRTPEVTCVVVDVSHEDPEVKFNWYVDGVEVHNAKTKPREEQYNSTYRVVSVLTVLHQDWLNGKEYKCKVSNKALPSSIEKTISKAKGQPREPQVYTLPPSREEMTKNQVSLTCLVKGFYPSDIAVEWESNGQPENNYKTTPPVLDSDGSFFLYSKLTVDKSRWQQGNVFSCSVMHEALHNHYTQKSLSLSPG
chain 2: not shown
B2 registered an EC50 in assay [1] of 0.163 nM.

B3: 3C3 (antibody, V domains shown)
VH: QVQLQQWGAGLLKPSETLSLTCAVYGGSFSGYYWTWIRQPPGKGLEWIGKINHSGNTNYNPSLKSRVTISVDTSKNQFSLKLSSVTAADTAVYYCARLGAFDAFDIWGQGTMVTVSS
VL: DIQMTQSPSSLSASVGDRVTITCRASQGISSWLAWYQQKPEKAPKSLIYAASSLQSGVPSRFSGSGSGTDFTLTISSLQPEDFATYYCQQYNSYPYTFGQGTKLEIKR
B3: the midpoint of the response in assay [2], the EC50, lay at 142 nM.

Values taken from patent US20220175921A1 (published 2022).
